{
  "source": "patent US20200239537",
  "key": {"[1]": {"system": "N-MeLeu9-apelin-17 A2 (11)"}},
  "data": [
    {"substance": "recombinant human plasma kallikrein KLKB1 (rhKLKB1, Novoprotein)", "values": [
      {"measurement": "Km", "setting": "[1]", "result": 245, "unit": "µM"},
      {"measurement": "kcat (1/S)", "setting": "[1]", "result": "16.5 1/S"},
      {"measurement": "kcat/Km (1/MS)", "setting": "[1]", "result": "67000 1/MS"},
      {"measurement": "Km", "setting": "apelin-17 (2)", "result": 97, "unit": "µM"},
      {"measurement": "kcat (1/S)", "setting": "apelin-17 (2)", "result": "13.7 1/S"},
      {"measurement": "kcat/Km (1/MS)", "setting": "apelin-17 (2)", "result": "140000 1/MS"},
      {"measurement": "Km", "setting": "apelin-17 A2 (5)", "result": 30, "unit": "µM"},
      {"measurement": "kcat (1/S)", "setting": "apelin-17 A2 (5)", "result": "1.4 1/S"},
      {"measurement": "kcat/Km (1/MS)", "setting": "apelin-17 A2 (5)", "result": "47000 1/MS"}
    ]}
  ]
}
